B1: mAb 12G3H11, human anti-human EphA2 monoclonal antibody, wild type hinge (antibody, human IgG1, V domains shown)
VH: QMQLVQSGPEVKKPGTSVKVSCKASGFTFDDYSMNWVRQARGQRLEWIGFIRNKANDYTTEYADSVKGRVTITRDMSTSTAYMELSSLRSEDTAVYYCARYPRHHAMDSWGQGTSVTVSS
VL: DIQMTQSPSSLSASVGDRVTITCRASQSISNNLHWYQQKPGKAPKLLIKYAFQSISGVPSRFSGSGSGTDFTFTISSLQPEDFATYYCQQANSWPLTFGGGTKVEIK
notes: Human IgG1/kappa expressed in HEK 293 cells; also called Wild type (12G3H11); 12G3H11 “wild type”; not shown: human kappa light chain constant region
B2: 12G3H11 Fc variant 5-GGG Insert Low (antibody, IgG1)
heavy (part 1 of 2): B1 VH
heavy (part 2 of 2): not shown
light: B1 VL
notes: domain: lower hinge, CH2, CH3; 12G3H11 IgG1/kappa; GGG inserted between P227 and P228; not shown: human IgG1 heavy chain constant region, CH1 up to EU 215; human IgG1 heavy chain constant region from EU 231 (lower hinge, CH2, CH3); human kappa light chain constant region
B3: 12G3H11 Fc variant 6-GGG Insert High (antibody, IgG1)
heavy (part 1 of 2): B1 VH
heavy (part 2 of 2): not shown
light: B1 VL
notes: domain: lower hinge, CH2, CH3; 12G3H11 IgG1/kappa; GGG inserted between D(Kabat 234) and K222; not shown: human IgG1 heavy chain constant region, CH1 up to EU 215; human IgG1 heavy chain constant region from EU 231 (lower hinge, CH2, CH3); human kappa light chain constant region
B4: 12G3H11 Fc variant 11-4 AA Delete (antibody, IgG1)
heavy (part 1 of 2): B1 VH
heavy (part 2 of 2): not shown
light: B1 VL
notes: domain: lower hinge, CH2, CH3; 12G3H11 IgG1/kappa; T223, H224, P227 and P228 deleted; not shown: human IgG1 heavy chain constant region, CH1 up to EU 215; human IgG1 heavy chain constant region from EU 231 (lower hinge, CH2, CH3); human kappa light chain constant region
B5: 12G3H11 Fc variant 13-2 AA Delete Mid (antibody, IgG1)
heavy (part 1 of 2): B1 VH
heavy (part 2 of 2): not shown
light: B1 VL
notes: domain: lower hinge, CH2, CH3; 12G3H11 IgG1/kappa; T223 and H224 deleted; not shown: human IgG1 heavy chain constant region, CH1 up to EU 215; human IgG1 heavy chain constant region from EU 231 (lower hinge, CH2, CH3); human kappa light chain constant region
B6: 12G3H11 Fc variant 14-T to C Middle (antibody, IgG1)
heavy (part 1 of 2): B1 VH
heavy (part 2 of 2): not shown
light: B1 VL
notes: domain: lower hinge, CH2, CH3; 12G3H11 IgG1/kappa; T223C; not shown: human IgG1 heavy chain constant region, CH1 up to EU 215; human IgG1 heavy chain constant region from EU 231 (lower hinge, CH2, CH3); human kappa light chain constant region
B7: 12G3H11 Fc variant 18-EPKS to PPPP (antibody, IgG1)
heavy (part 1 of 2): B1 VH
heavy (part 2 of 2): not shown
light: B1 VL
notes: domain: lower hinge, CH2, CH3; 12G3H11 IgG1/kappa; EPKS replaced by PPPP; not shown: human IgG1 heavy chain constant region, CH1 up to EU 215; human IgG1 heavy chain constant region from EU 231 (lower hinge, CH2, CH3); human kappa light chain constant region

Each binder was assayed against T1, human EphA2-Fc (human, UniProt P29317 25-534, limits assumed) (assay: KinExA, EphA2-Fc beads, solution equilibrium titration).
T1 construct: Coated on Azlactone beads and titrated in solution in KinExA; not shown: Fc part
T1 sequence (P29317 25-534 limits assumed): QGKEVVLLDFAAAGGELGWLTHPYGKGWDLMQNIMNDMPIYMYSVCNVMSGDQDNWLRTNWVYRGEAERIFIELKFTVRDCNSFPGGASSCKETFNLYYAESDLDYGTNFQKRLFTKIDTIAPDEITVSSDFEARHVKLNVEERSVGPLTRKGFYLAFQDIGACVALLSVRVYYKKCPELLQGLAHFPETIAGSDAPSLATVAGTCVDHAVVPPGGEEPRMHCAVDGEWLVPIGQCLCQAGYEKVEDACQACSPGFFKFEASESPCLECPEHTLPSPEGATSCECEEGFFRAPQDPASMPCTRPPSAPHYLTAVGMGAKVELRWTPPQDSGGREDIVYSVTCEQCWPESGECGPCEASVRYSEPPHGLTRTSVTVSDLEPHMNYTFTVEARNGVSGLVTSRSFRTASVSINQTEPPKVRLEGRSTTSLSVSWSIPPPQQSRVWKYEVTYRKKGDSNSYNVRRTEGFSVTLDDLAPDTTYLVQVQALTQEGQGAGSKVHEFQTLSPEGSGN
Method: Protein concentrations were calculated by the BCA method. […] Coated beads were then separated from unreacted EphA2-Fc using a gentle pulse spin and blocked for approximately 2 h at room temperature with 1 M Tris, pH 8.0, bovine serum albumin 10 mg/mL. Beads were then resuspended in 30 mL of run buffer (PBS, pH 7.4-0.02% NaN₃) and packed into a column. […] The amount of free IgG in the samples was derived from the fluorescence signal obtained after the passing of Cy5-labeled goat anti-human IgG F(ab′)₂ (typically 0.5-2 μg/ml; Jackson ImmunoResearch Laboratories, West Grove, Pa.) through the column.
B1 showed a Kd of 1.1 pM.
In the case of B2, the Kd is reported as 0.8 pM.
B3 showed a Kd of 2.7 pM.
B4 was tested, and the Kd was ≤ 1 pM.
Binder B5 has a Kd of 1.7 pM.
For B6, the Kd was 7.2 pM.
B7 gave a Kd of 1.5 pM.

Source: patent US20110077383A1 (AstraZeneca / MedImmune, published 2011)
